This assay deals with chicken MyD88, full length, Flag-tagged (Flag-MyD88), expressed in HEK293T cells (chicken) (UniProt A5HNF6). Put plainly: co-IP; HEK293T cells co-transfected with the indicated plasmids (2 ug/1x10^6 cells), harvested at 30 h; NP-40 lysis buffer; immunoprecipitated by the Flag tag, blotted for HA and Flag tags.

Fold decrease of interaction compared to VP2 data for one substance are collected here from PMC11957393.

Chain of UniProt A5HNF6 (A5HNF6 whole entry): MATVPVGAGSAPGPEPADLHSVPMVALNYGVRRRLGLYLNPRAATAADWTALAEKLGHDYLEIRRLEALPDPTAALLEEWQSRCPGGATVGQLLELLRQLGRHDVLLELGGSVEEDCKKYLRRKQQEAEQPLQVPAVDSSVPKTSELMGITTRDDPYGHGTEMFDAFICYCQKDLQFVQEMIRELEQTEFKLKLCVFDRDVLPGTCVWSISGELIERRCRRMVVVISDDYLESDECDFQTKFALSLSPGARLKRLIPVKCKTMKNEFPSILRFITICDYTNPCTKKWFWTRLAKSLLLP

In turn, “VP2-HT: IBDV VP2 with the double mutation Q253H/A284T (VP2 of the rescued HT strain), expressed in HEK293T cells (natural protein)” returned a fold decrease of interaction compared to VP2 of 2.9 fold.
